Data taken from FireProtDB.

Settings: Bos taurus; pH 8; 30 °C; GdnHCl; CD; borate 10 mM

Phospholipase A2 wild type, P00593, sequence (P00593 whole entry): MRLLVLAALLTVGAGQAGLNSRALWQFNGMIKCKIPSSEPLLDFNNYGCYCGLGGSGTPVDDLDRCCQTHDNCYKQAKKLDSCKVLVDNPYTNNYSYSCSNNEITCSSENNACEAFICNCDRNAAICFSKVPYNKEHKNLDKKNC

## Phospholipase A2 wild type, P00593
  denaturant m value: 1.47 kcal/mol/M
  denaturant midpoint (higher = more stable): 6.9 M
  unfolding free energy: 9.5 kcal/mol
